Stoichiometry N data for one substance are collected here from publication PMC10182996.

In the test the target is CPn0677-His (recombinant full-length CPn0677 with C-terminal 10His tag) (Chlamydia pneumoniae GiD). Briefly: SEC; Superdex 200 Increase 10/300 GL, 4 °C, 0.5 ml/min, 5.2 mg CPn0677 (5 mg/ml) in PBS pH 6.0, against standard proteins. In general terms: Size exclusion chromatography separates by hydrodynamic size, large species first.

Broadly, the stoichiometry N is the number of molecules, sites or subunits per partner or assembly. “CPn0677-His (recombinant full-length CPn0677 with C-terminal 10His tag) (natural protein)”: the stoichiometry N stood at 2.
